{"source": "the DeepSol protein solubility set", "data": [{"assay": "soluble on expression in E. coli; label from the status in PepcDB or PDB records", "values": [{"sequence": "MSLFLIMSGAYVGQELESEFGRIPPSFLPLGNRRLFQHQVALAPQGVKVYLSLPESYVVSEIDLQWLEQNQVTIIATPDGLSLGASLVAALNISGHSLNAPLHILYGDTLFNQLPVGDDIVSVSTAKDSYNWAVLTNDDVDWLQDANTPMSHESQRIIDGYFKFSHPRELVRCITQSEWKFIAGLNRYHKSVGLSAVNSIGWLDFGHVNTYYHSKAEFTTQRAFNELTITAKWIEKSSIKNQKIAAEAYWFDNLPMAMRGFIPQYLGSQNSEGKISYRLEYLYLTALNELFVFSRLPSQIWQKILASAVEFLSLCLEQAVEPNAPINTLDILFADKTALRLNEFCAARHITLEDQWQFAGQDISLAQILRDSQKHLPDGKPLLGVLHGDFCFSNILYDFRANKIKTIDPRGMTPDGQKTLYGDIRYDLAKLSHSILGLYDWIIAGYYHVEIADNAIELKIAEQSHHKETQQGFIELIEQTFGLTAKNLYAMQIQLFLSMLPLHADDRRRQDALFANAFRLHQILLRLDQEGHHHHHH", "soluble on expression in E. coli": "soluble"}, {"sequence": "KIPEFRDVLISTIGGPHAKLGYEIARALVEDKSGRIKLLYVGSSEKEREKAEKVFEEAMEILNGLNVEREFAISSSPSDVVAREAESFDLVIVGASERTFLKNFLTGLFPEKVVMKTSKTVAMTRKWVGLLNR", "soluble on expression in E. coli": "not soluble"}, {"sequence": "MGSDKIHHHHHHMLDIHWLKTFVTLAEHKHFGKAATALHMTQPNVSLHIKQLEQSTRVKLIDRNPFRLTQAGFRLLESSQKTLMELQICQADLNAINDLSQGTLTIAASDIISRLLLIQPFQLFKAEFPGIDFSLLNTTSSQASELVKNAEADLGFVIAQKESQPLHFTELQQIKWCAIGDNLQQWQQANLSVDTPLAEQPTLILLGHDTRTRELLDPALPSLNLPNYRIMEVGSVDAQIDWAEAGFGVAIVPEFSVYTKANLTTKVTPLPQFPTTSLGYIVRQNQILSKAIKQLLYWVNQEIIRSQR", "soluble on expression in E. coli": "not soluble"}, {"sequence": "SNQEKLQRTMIHFNNPEVQAFLAVNTFTITGHGETKQLTEMLRSVLNQLAAVSLTSLRRLAEALPKQSVDGKAPLATGEDDDDDEVPGIMENFDEASKNEAN", "soluble on expression in E. coli": "soluble"}, {"sequence": "SLVLMSETKNELEDLLEKAATEPAHRPAFFRTLLESTVWVPGTAAQGEAVVEDSALDLQHWEKEDGTSVIPFFTSLEALQQVVEDEQAFVVMPVRTLFEMTLGETLFLNAKLPTGKEFMPREISLLIGEEGNSLSSQEVLEGGESLILSEVAEPPVQMIDSLTTLFKTIKPVKRAFICLIKESEEAQPNLLIGIEADGDIEEIIQAAGSVATDTLPGDEPIDICQVKKGEKGISHFITEHIAPFYERRWGGFLRDFKQNRII", "soluble on expression in E. coli": "soluble"}, {"sequence": "MGSDKIHHHHHHMKHGGYPWKNGKPALDVKDFSVNLNPMGVPKFIEELINEAVKLKVYAYYPPQNLREIKGIIAEIYGVNEDLVGVFNGASEVISILDENFTVPQPNYSEYKFHSYYFAEEHEDEFVFELNPGRILTSNPNNPTGSLIKLDEIEEFLINEKNELILDESFIDISLAESATKLVNEFNNLTIINSFTKSLAIPGLRFGFSIGHKSKELEKRVPIWRINSITYYVISNLNPKEVRSFFVNSKIKVKEIYDKVDGVKKLFKMYKSYAPFFLVEFKIPTSLINDELIRRCKCYIRDASNFLGLRNTHARIALKNEVIELINNINEIISEKES", "soluble on expression in E. coli": "not soluble"}, {"sequence": "MGSDKIHHHHHHMNNIIATGFNTASTDGELDSLERELRRLEAIGVDTVELALSSLDLIAGGRIVKERGDRLRTLLETFSFRYTVHGLVSSNFMDPATRRHQVDAAKALVEICDSIDARVLVQHAGFLRADQIAQRAGADERQCEALLELGEHAKAYGIRIAFENIFTTEPGQYRQTPAEVAATVKAVNHPDVVALIDFSHAYLESNYRGLDFRDQLRAMAPVLGAPGRRLSRRTATTRIVVITDGGMECSTGWTS", "soluble on expression in E. coli": "not soluble"}, {"sequence": "VGKQLAALAALVGACMLAAGCTNVVDGTAVAADKSGPLHQDPIPVSALEGLLLDLSQINAALGATSMKVWFNAKAMWDWSKSVADKNCLAIDGPAQEKVYAGTGWTAMRGQRLDDSIDDSKKRDHYAIQAVVGFPTAHDAEEFYSSSVQSWSSCSNRRFVEVTPGQDDAAWTVADVVNDNGMLSSSQVQEGGDGWTCQRALTARNNVTIDIVTCAYSQPDLVAIGIANQIAAKVAKQ", "soluble on expression in E. coli": "not soluble"}, {"sequence": "QGMISFTQQNEQEADRIGIQVLQRSGFDPQAMPTFLEKLLDQARYSSRPPEILLTHPLPESRLADARNRANQMRPIVVQSSEDFYLAKVRTLGMYNSGRNQLTSDLLDEWAKGNVRQQRAAQYGRALQAMEANKYDEARKTLQPLLAAEPGNAWYLDLATDIDLGQNKANDAINRLKNARDLRTNPVLQLNLANAYLQGGQPQEAANILNRYTFNNKDDSNGWDLLAQAEAALNNRDQELAARAEGYALAGRLDQAISLLSSASS", "soluble on expression in E. coli": "not soluble"}, {"sequence": "MEAEMSDERCALVLEGGAMRGMYTAGVLDCFMDHDISFDAVIGVSAGALFGVNLLSKQRGRVIRYNKRFNSDKNYMGIRPLLREKNIVSTKYAYDTVPRELDPFDDEEYKKSDIPFYAVVTNIRTGKPEYVQIKSVFDQMDVLRASGSMPVVSKPVKLGNEWYLDGAVTDSIPYEHMLDMGYDRVVVVLTKPADYIKKPMPRLFTSVYKKRFPRFYEAFSNRHIMYNYQLEHLKELEKQGIAEVLRPSEHIKISKVEKDPNKLESLYQLGLRDAKRLLADKQGMEKQ", "soluble on expression in E. coli": "not soluble"}, {"sequence": "MTLNPRQSALVELVRTQGSATIEALARHFDVTLQTVRRDVNLLSEAGMLSRFHGGVRIESSTIENIAYRKRQGLHAEGKRRIAEAVARAVPDGCSLLINIGTTTEAIARALLRHRGLRVITNNLHVADILSDNPDCEVIVAGGVVRSRDRGIVGEATLDFIRQFKVDIGLIGISGIEADGTLRDYDFREVRVARAIIEQSREVWLAADSSKFQRQAMVELVHVSRIHRFFTDTQPQEPLAQVLQDAGVRCDVAAQSAGAAAALEHHHHHH", "soluble on expression in E. coli": "not soluble"}, {"sequence": "MGKPSGERILQMKIALVMLAAGNSRRFGSNKLLYEIEGKPMYLLTLEKLKKASEKIPESEIIVVTQYEEIVKKAGEMKIPVFINPRPEDGISLSMQIGLMSVRDTDACLFTVSDQPWLEADTVVALTELFENEKKGMACIRWNGKTGNPCIFGQKYYEELMEISGDKGGKKIIKKHPEDVAYLQIRNARELQDADEPDVFTAGNLR", "soluble on expression in E. coli": "not soluble"}, {"sequence": "MIFAYNKEQVGDVLLVILEDTKDIKRSVERKGKVARVTADETGKTLAWNIFEASSLIDIEGNGQVFLSDQDVAILNEELAKEGFEERLENTQGPVFVVGQIDEMVPHPDSDHLNICQVNIGDKKVQIVAGAPNASPGLKTIVALPGAMMPSGALIFPGKLRGEDSYGMMCSPRELALPNAPQKRGIIELDDSAVVGEAFDPAKHWKRLEHHHHHH", "soluble on expression in E. coli": "soluble"}, {"sequence": "MGSDKIHHHHHHMLLTPDDLKACEVELARRSLADFARMAWPVLEPATPLKWGWALDAICEHLEAVSRGESKRLLMNVPPGSMKSLLTGVIWPAYEWGPMDHAEMRFLGTAHKQDLAVRDNLKCRRLIQSQWYQERWPVVLTSDQNAKTKFENARTGFREAMAFESMTGSRGDRVILDDPHSVDDANSAAKLASGVTTFREALPSRVNNDQSAIVIVMQRLNEADVSAVAIDLGYDHLCIPMRYEPGRSKWVYGSGDPRKEEGELMFPERFPEEQVSELEKTMGSYAVAGQLQQRPAPRGGGIIKTAWFRSYRELPALEWRQIHADTAQKTGEENDYSVFQCWGRTTTGQAVLIDQIRGKWEAPDLLTQARAFWLKHKSIPGPVLRAMKVEDKVSGTGLIQTLRREGVAVIPVQRNKDKISRAYDAAAFIESGNVLLPEWADWLDGFTNEAATFPSGAHDDQLDPMFDAIHDVQFGMTVSAAVTRPIPRSVTAFNKR", "soluble on expression in E. coli": "not soluble"}, {"sequence": "PKTVQDLTSVVQTLLQQMQDKFQTISDQIIGRIDDMSSRIDDLEKNIA", "soluble on expression in E. coli": "soluble"}, {"sequence": "MTATLDDARAALDRIADPASGQGLVKAGLVQGLVVRNGRAGFMLEVPASVVASYAPVREAAEKALAALPGVEQAQVVLTAQAAEGATRVRKGAKISEDPQARMVPPPEAEKPQHVRHVIAVASGKGGVGKSTVSTNLAVAFAKMGLRVGLLDADIYGPSAPKMMGVDGDPLFENEKLQPLEAHGVKLMSIGFIVDEGKAMIWRGPMASSAVRQMIHDVAWGSEAQPLDVLVVDLPPGTGDVQLTLVQKLRIDGAVLVTTPQEIALIDARRAAAMFEKTATPILGLIENMAFFADPSTGAPIPIFGEGGGVAEAARLNVPLLGRVPIEIAVRLGGDQGVPAVIGEPKGQAAEVFIGAAKVLWKSVSHLEHHHHHH", "soluble on expression in E. coli": "soluble"}, {"sequence": "MKKEEGLTENTGLPRKLLEKHDPWPAYVTYTSQTVKRLIEKSKTRELECMRALEERPWASRQNKPSSVIQPKRRKSSKSSGKAVFRDTLSESTLSMWGAYSVLAMAPTMIPEPTHLHADSRDCPTENYNKIIFARKPMMRMLPTVRY", "soluble on expression in E. coli": "not soluble"}, {"sequence": "MGSDKIHHHHHHMTLPMPEKFWDIRIHKVDIHPGVTGLCVGYERGVWRKDQFVRHAMDWLPEFALKESELKGVDSANMVQMVRDAATAIYKSEKFHKRGEFGELFLHMAKRQVFNSIPAVSKIYYKTARNDTVKGFDSVHVVEAEDGLELWLGEVKFYKDLNSAVADVVKELQGHTQTDYLRDEFNLIMNKVDRDWEHYETMKRLMSKNTSLDEVFKRACIPVLLTYESEAICQCSVCDEEYKKLFINEIREAYKLFSSKKLPTDIRIHLFLFPLASKPELIKALDKKLKLWQQL", "soluble on expression in E. coli": "not soluble"}, {"sequence": "MQSKTAKLPDNDRNRPLIQTFNDAQQKVWFDDALLHEDPSQCCNPEFWQQNGKVLGSATGRGTTWFVQLQQTQGALRHYRRGGLFGKLVADSYWFTGWEKTRSYQEFMLLNHLRDAGVNVPRPIAARVQKHGLLYKADLLSEKVPNARDLVSILQESPISDELYRKIGREIRKMHDAQVNHTDLNIHNILIDDQEKVWIIDFDKCYVQIGDSWKQGNLKRLKRSFEKEVCKRGINWSLEAFAIISSYKHEE", "soluble on expression in E. coli": "not soluble"}, {"sequence": "MASSINGRKPSEIFKAQALLYKHIYAFIDSMSLKWAVEMNIPNIIQNHGKPISLSNLVSILQVPSSKIGNVRRLMRYLAHNGFFEIITKEEESYALTVASELLVRGSDLCLAPMVECVLDPTLSGSYHELKKWIYEEDLTLFGVTLGSGFWDFLDKNPEYNTSFNDAMASDSKLINLALRDCDFVFDGLESIVDVGGGTGTTAKIICETFPKLKCIVFDRPQVVENLSGSNNLTYVGGDMFTSIPNADAVLLKYILHNWTDKDCLRILKKCKEAVTNDGKRGKVTIIDMVIDKKKDENQVTQIKLLMDVNMACLNGKERNEEEWKKLFIEAGFQHYKISPLTGFLSLIEIYP", "soluble on expression in E. coli": "soluble"}, {"sequence": "SSTFEDADTEETVTCLQMTIYHPGQQSGIFKSIRFCSKEKFPSIEVVKFGRNSNMCQYTFQDKQVSRIQFVLQPFKQFNSSVLSFEIKNMSKKTSLMVDNQELGYLNKMDLPYKCMLRFGEYQFLLQKEDGESVESFETQFIMSSRPLLQENNWPTQNPIPEDGMYSSYFTHRSSPSEMDENEL", "soluble on expression in E. coli": "soluble"}, {"sequence": "MSTQVQDRIHDRRELTAVLLRALEQRHEVLDAIVDSEDHAEALTTVAGLLDTSEAYAEAVLNLTFRRLTKVERLRIQTELKDLDATLEWTSTDRPASTGRNFRLRPFTDTEEDAELFRRRCGEQVDDAGAQWSEDRVEKERTEGLSRVDDESAAWFVCEDTAENTAVGMVFGELSGREVDVAIWIAPDARKKGYGTAAVKHSRQELAAEFPGTVLVVR", "soluble on expression in E. coli": "not soluble"}, {"sequence": "AIAGTHSGHERNGESARGGALQRLERRLAAAWAEQDAYQIEQLAGMIYDRLVRSDPSAAATVLEQNAHRLAVAGKPAEAAELATRLIRHWRELEQRPFYLARLQQMVLEPLQALSGVEAARARTMVLEAVLAWKRASATVDTEEAAPAELAPVQDALVDAYVLCGEWARAQYQVVCRGGPAERDLAFIDEQLGPHLANDVERMLARTRLVLFYVLAGNLKAGRALVEEIQRKHPTAPMTNFVVILMQVLERARNVDSSKRRLLRNFCDDLKRVYHWAFSLDPELDAMLDDVLKAQGL", "soluble on expression in E. coli": "soluble"}]}]}
